In test [1] the test system is olivetolic acid. Nature of the test: GPS-APT fusions, OA feed in vivo assay (Example 11). Type of test: cell-based, Yarrowia. The note with it: for CBGA / FCBGA: olivetolic acid feed as in Example 8, 48 h quench, strain sCL-SE-0128; for CBGA/FCBG: olivetolic acid feed, 48 h quench, product ratio. As for the experimental part: (§1) As described below, plasmids pCL-SE-0406, pCL-SE-0664, pCL-SE-0663, pCL-SE-0662, pCL-SE-0380 (MPT4), pCL-SE-0337.MPT21, pCL-SE-0337.MPT26, and pCL-SE-0337.MPT31 were transformed into strain sCL-SE-0128. Multiple colonies per transformation were precultured for 48 h in YNB containing glucose (2%), casamino acids (0.5%), and MES (100 mM pH 6.5). Pre-culture was used to inoculate assay medium comprised of YNB containing glucose (2%), casamino acids (0.5%), MES (100 mM pH 6.5), and olivetolic acid (2 mM). Cultures were quenched with equal volume of ethanol after 48 h total growth and assayed for CBGA and FCBGA. Averages and standard deviations were calculated from replicates.
Soluble prenyl transferase APT73.77 was fused with GPS1.1 at the N- or C-terminus with different linkers creating the plasmids shown in Table 14. These fusion proteins were expressed and screened as described in Example 8 (olivetolic acid feed)
(§2) Overnight YPD (10 g/L yeast extract, 20 g/L peptone, 2% dextrose) cultures were inoculated from glycerol stocks of the appropriate strain and grown at 30° C. with 250 rpm shaking. Once cultures had reached an OD600 of 4-6, cultures were centrifuged at 500×g for 5 min, supernatants were discarded, and cell pellets were resuspended in equal volume of water. Resuspended cells were centrifuged at 500×g for 5 min, supernatants were discarded, and cells were resuspended in a volume (75 μL×OD×Vculture) of transformation cocktail (45% PEG-400, 0.1 M LiAc, 0.1 M DTT, and 25 ug/100 μL SS Salmon Sperm DNA). For each transformation, >1 μg of plasmid DNA was added to 55 μL cells/transformation cocktail and vortexed for 2 s. Transformations were incubated at 39° C. for 1 h with 250 rpm shaking. Transformations were resuspended in 750 μL YPD with 1 M sorbitol and recovered at 30° C. overnight with 250 rpm shaking. The next day, transformations were centrifuged at 500×g for 5 min, supernatants were discarded, and cell pellets were resuspended in 750 YPD. Resuspended transformations were plated on YPD with appropriate selection or YNBD (6.71 g/L yeast nitrogen base+nitrogen, 0.5% casamino acids, 2% dextrose) agar plates and grown at 30° C. for 2 days. Individual colonies were patched onto YPD plates with appropriate selection or YNBD plates and grown at 30° C. overnight. Patches were used to inoculate 0.5 mL YPD with appropriate selection or YNBD precultures in 96 w blocks and grown at 30° C. for 24-48 h with 1000 rpm shaking. For assays, 0.5 mL YPD with appropriate selection or YNBD cultures containing substrate were inoculated with 2 μL from precultures and grown at 30° C. for 2-4 days with 1000 rpm shaking with 2% glucose added every 24 h. Assay cultures were quenched by addition of 0.5 mL ethanol with 0.2% formic acid and 0.5 mg/mL pentyl-benzoic acid. Precipitates were pelleted by centrifuging at 4600×g for 10 min and then 200 μL was transferred to fresh plates, sealed, and analyzed via HPLC.
(§3) All samples were quenched with equal volume of EtOH containing 0.2 mg/mL internal standard (3,5-Diisopropyl-2-hydroxybenzoic acid CAS #2215-21-6) centrifuged, and clarified solutions were analyzed by HPLC-MS
(§4) • Column: 2.1×50 mm COSMOCORE PBr (Nacalai USA, Inc.) • Mobile Phase: A; 0.1% formic acid in water, B; 0.1% formic acid in acetonitrile • Flow: 0.45 mL/min • Temp: % 50 Celsius • Gradient: 20%B at 0 min, 70%B at 2.3 min, 89% B at 4.2 min, 20% B at 4.3 min, 20%B at 6 min

The subject of test [2] is olivetolic acid. Nature of the test: MPT fusions with GPS1.1 vs unfused MPTs, OA feed (Example 8, Table 9). The class given is cell-based, Yarrowia. The note with it: 2 mM olivetolic acid, 48 h quench; for CBGA / FCBGA: 2% glucose, strain sCL-SE-0128; for CBGA/FCBGA: product ratio. How it is done:
as §1, §2, §3, §4

B1: GPS1.1-F18-APT73.77: fusion protein, SEQ ID NO: 65 (protein)
chain: MSKAKFESVFPRISEELVQLLRDEGLPQDAVQWFSDSLQYNCVGGKLNRGLSVVDTYQLLTGKKELDDEEYYRLALLGWLIELLQAFWLVSDDIMDESKTRRGQPCWYLKPKVGMIAIWDAFMLESGIYILLKKHFRQEKYYIDLVELFHDISFKTELGQLVDLLTAPEDEVDLNRFSLDKHSFIVRYKTAYYSFYLPVVLAMYVAGITNPKDLQQAMDVLIPLGEYFQVQDDYLDNFGDPEFIGKIGTDIQDNKCSWLVNKALQKATPEQRQILEDNYGVKDKSKELVIKKLYDDMKIEQDYLDYEEEVVGDIKKKIEQVDESRGFKKEVLNAFLAKIYKRQKGGGGSLEDPAVWEAGKVVAKGVGTADITATTSNGLIASSEEADNAATSMDEVYAAVEQTSRLLDVPCSPDRFEPVWKAFGDQLPDSHLVFSMAAGEAHRGELDFDFSLRPEGADPYTTALEHGFIEPTDHPVGSVLAEVGKRFAIASYGVEYGVVGGFKKSYAFFPLDDFPPLAQFAEVPSVPPCLAGHVETLTRLGFDDKVSIIGVNYRKNTLNVYLAASAVDTGDKLALLRAFGYPEPDARVRQFIERSFRLYPTFNWDSSAAERICFAVHTQQPGELPAPHDEPTEAFARQVPHVYEGGREFVSGVALAPSGASYYKLAALYQKARRCLD
modifications: GPS1.1-F18-APT73.77, geranyl diphosphate synthase, mutant soluble aromatic prenyltransferase fusion protein
Consider B1, for which, in the test on olivetolic acid [1], the CBGA stood at 468 ± 24 µM, the FCBGA is 121 ± 2 µM and the CBGA/FCBG worked out at 3.9.

B2: APT73.77-F17-GPS1.1: fusion protein, SEQ ID NO: 64 (protein)
chain: MDEVYAAVEQTSRLLDVPCSPDRFEPVWKAFGDQLPDSHLVFSMAAGEAHRGELDFDFSLRPEGADPYTTALEHGFIEPTDHPVGSVLAEVGKRFAIASYGVEYGVVGGFKKSYAFFPLDDFPPLAQFAEVPSVPPCLAGHVETLTRLGFDDKVSIIGVNYRKNTLNVYLAASAVDTGDKLALLRAFGYPEPDARVRQFIERSFRLYPTFNWDSSAAERICFAVHTQQPGELPAPHDEPTEAFARQVPHVYEGGREFVSGVALAPSGASYYKLAALYQKARRCLDGGGGSMSKAKFESVFPRISEELVQLLRDEGLPQDAVQWFSDSLQYNCVGGKLNRGLSVVDTYQLLTGKKELDDEEYYRLALLGWLIELLQAFWLVSDDIMDESKTRRGQPCWYLKPKVGMIAIWDAFMLESGIYILLKKHFRQEKYYIDLVELFHDISFKTELGQLVDLLTAPEDEVDLNRFSLDKHSFIVRYKTAYYSFYLPVVLAMYVAGITNPKDLQQAMDVLIPLGEYFQVQDDYLDNFGDPEFIGKIGTDIQDNKCSWLVNKALQKATPEQRQILEDNYGVKDKSKELVIKKLYDDMKIEQDYLDYEEEVVGDIKKKIEQVDESRGFKKEVLNAFLAKIYKRQK
modifications: APT73.77-F17-GPS1.1, mutant soluble aromatic prenyltransferase, geranyl diphosphate synthase fusion protein
As for B2, in the test with olivetolic acid [1], the CBGA worked out at 242 ± 36 µM, the FCBGA came out at 73 ± 9 µM and the CBGA/FCBG is listed as 3.3.

B3: GPS1.1-F16-APT73.77: fusion protein, SEQ ID NO: 63 (protein)
chain: MSKAKFESVFPRISEELVQLLRDEGLPQDAVQWFSDSLQYNCVGGKLNRGLSVVDTYQLLTGKKELDDEEYYRLALLGWLIELLQAFWLVSDDIMDESKTRRGQPCWYLKPKVGMIAIWDAFMLESGIYILLKKHFRQEKYYIDLVELFHDISFKTELGQLVDLLTAPEDEVDLNRFSLDKHSFIVRYKTAYYSFYLPVVLAMYVAGITNPKDLQQAMDVLIPLGEYFQVQDDYLDNFGDPEFIGKIGTDIQDNKCSWLVNKALQKATPEQRQILEDNYGVKDKSKELVIKKLYDDMKIEQDYLDYEEEVVGDIKKKIEQVDESRGFKKEVLNAFLAKIYKRQKGGGSGGGSGGGSGGGGSMDEVYAAVEQTSRLLDVPCSPDRFEPVWKAFGDQLPDSHLVFSMAAGEAHRGELDFDFSLRPEGADPYTTALEHGFIEPTDHPVGSVLAEVGKRFAIASYGVEYGVVGGFKKSYAFFPLDDFPPLAQFAEVPSVPPCLAGHVETLTRLGFDDKVSIIGVNYRKNTLNVYLAASAVDTGDKLALLRAFGYPEPDARVRQFIERSFRLYPTFNWDSSAAERICFAVHTQQPGELPAPHDEPTEAFARQVPHVYEGGREFVSGVALAPSGASYYKLAALYQKARRCLD
modifications: GPS1.1-F16-APT73.77, geranyl diphosphate synthase, mutant soluble aromatic prenyltransferase fusion protein
On to B3, for which, in the test with olivetolic acid [1], the CBGA is 421 ± 44 µM, the FCBGA amounted to 113 ± 12 µM and the CBGA/FCBG is on record as 3.7.

B4: GPS1.1-F11-MPT31: fusion protein, SEQ ID NO: 27 (protein)
chain: MSKAKFESVFPRISEELVQLLRDEGLPQDAVQWFSDSLQYNCVGGKLNRGLSVVDTYQLLTGKKELDDEEYYRLALLGWLIELLQAFWLVSDDIMDESKTRRGQPCWYLKPKVGMIAIWDAFMLESGIYILLKKHFRQEKYYIDLVELFHDISFKTELGQLVDLLTAPEDEVDLNRFSLDKHSFIVRYKTAYYSFYLPVVLAMYVAGITNPKDLQQAMDVLIPLGEYFQVQDDYLDNFGDPEFIGKIGTDIQDNKCSWLVNKALQKATPEQRQILEDNYGVKDKSKELVIKKLYDDMKIEQDYLDYEEEVVGDIKKKIEQVDESRGFKKEVLNAFLAKIYKRQKGGAEAAAKEAAAKAGGSGGGSGGGGSGGSGGGGSGGGGSMSDNSIATKILNFGHACWKLQRPYVVKGMISIACGLFGRELLHNTNLISWGLMWKAFFALVPILSFNFFAAIMNQIYDLHIDRINKPDLPLASGEISVNTAWIMSIIVALTGLIVTIKLKSAPLFVFIYIFGIFAGFAYSVPPIRWKQNPSTNFLITISSHVGLAFTSYYASRAALGLPFELRPSFTFLLAFMTVMGMTIAFAKDISDIEGDAKYGVSTVATKLGARNMTFVVSGVLLLNYLVSISIGIIWPQVFKSNIMILSHAILAFWLILQTRDFALTNYDPEAGRRFFEFIWLLYYAEYLVYVFI
modifications: GPS1.1-F11-MPT31, geranyl diphosphate synthase, recombinant membrane-bound prenyltransferase fusion protein
Turning to B4, in the test on olivetolic acid [2], the CBGA was found to be 53 ± 4 µM, the FCBGA amounted to 5 ± 0 µM and the CBGA/FCBGA is listed as 10.8.

B5: GPS1.1-F11-MPT26: fusion protein, SEQ ID NO: 26 (protein)
chain: MSKAKFESVFPRISEELVQLLRDEGLPQDAVQWFSDSLQYNCVGGKLNRGLSVVDTYQLLTGKKELDDEEYYRLALLGWLIELLQAFWLVSDDIMDESKTRRGQPCWYLKPKVGMIAIWDAFMLESGIYILLKKHFRQEKYYIDLVELFHDISFKTELGQLVDLLTAPEDEVDLNRFSLDKHSFIVRYKTAYYSFYLPVVLAMYVAGITNPKDLQQAMDVLIPLGEYFQVQDDYLDNFGDPEFIGKIGTDIQDNKCSWLVNKALQKATPEQRQILEDNYGVKDKSKELVIKKLYDDMKIEQDYLDYEEEVVGDIKKKIEQVDESRGFKKEVLNAFLAKIYKRQKGGAEAAAKEAAAKAGGSGGGSGGGGSGGSGGGGSGGGGSMSDNSIATKILNFGHTCWKLQRPYVVKGMISIACGLFGKELLHNTNLISWGLMWKAFFALVPILSFNFFAAIMNQIYDVDIDRINKPDLPLVSGEMSIETAWILSIIVALTGLIVTIKLKSAPLFVFIYIFGIFAGFAYSVPPIRWKQNPSTNFLITISSHVGLAFTSYSATTSALGLPFVWRPAFSFIIAFMTVMGMTIAFAKDISDIEGDAKYGVSTVATKLGARNMTFVVSGVLLLNYVAAILAGIIWPQAFNSNVMLLSHAILAFWLILQTRDFALTNYDPEAGRRFFEFIWLLYYAEYFVYVFI
modifications: GPS1.1-F11-MPT26, geranyl diphosphate synthase, recombinant membrane-bound prenyltransferase fusion protein
As to B5, in the test with olivetolic acid [2], the CBGA was 98 ± 8 µM, the FCBGA turned out to be 21 ± 2 µM and the CBGA/FCBGA amounted to 4.6.

For the origin of these results see patent publication US20240228986A1, “ENGINEERED CELLS, ENZYMES, AND METHODS FOR PRODUCING CANNABINOIDS” (priority 2021, published 2024).
